Three molecules from patent publication US20230303698A1 (published 2023) can be followed below.

By EC50 is commonly meant the concentration that produces a half-maximal response.

In experiment [1] the target is T1, human PD-L1 (human, UniProt Q9NZQ7 19-290). The experiment in a line: FACS; panel C. In general terms: A flow cytometer gives signals particle by particle.
The target in experiment [2] is T1, human PD-L1. As to the kind of experiment: FACS binding to CHO-K1/hPD-L1 cells.
Experiment [3] has as its target T1, human PD-L1. The experiment in a line: FACS; panel A.
In experiment [4] the target is T1, human PD-L1. The experiment in a line: FACS; panel B.
In experiment [5] the target is T2, cynomolgus monkey 4-1BB (cynomolgus monkey).
T2 chain: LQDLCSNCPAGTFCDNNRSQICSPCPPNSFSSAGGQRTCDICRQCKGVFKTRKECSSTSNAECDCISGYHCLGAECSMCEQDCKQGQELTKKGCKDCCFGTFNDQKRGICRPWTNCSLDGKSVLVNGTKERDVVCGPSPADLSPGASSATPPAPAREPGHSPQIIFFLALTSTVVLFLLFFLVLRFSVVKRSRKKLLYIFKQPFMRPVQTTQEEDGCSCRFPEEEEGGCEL
The experiment in a line: FACS.

For experiment [6], the target named is T3, human 4-1BB (human, UniProt Q07011 24-255). The experiment in a line: FACS.
In experiment [7] the target is T3, human 4-1BB. As to the kind of experiment: FACS. This is another data set of the same source.
Experiment [8] deals with T3, human 4-1BB. The experiment in a line: FACS; panel B.
For experiment [9], the target named is T3, human 4-1BB. The experiment in a line: FACS; panel B. The source holds these as a separate data set.
Experiment [10] concerns the target T3, human 4-1BB. As to the kind of experiment: FACS. The source holds these as a separate data set.
The target in experiment [11] is T3, human 4-1BB. The experiment in a line: FACS; panel A.
The target in experiment [12] is T3, human 4-1BB. The experiment in a line: FACS; FIG. 5.
The target in experiment [13] is T3, human 4-1BB. As to the kind of experiment: FACS; panel A. This is another data set of the same source.
In experiment [14] the target is T3, human 4-1BB. As to the kind of experiment: FACS; FIG. 6.
Experiment [15] deals with T3, human 4-1BB. The experiment in a line: FACS; panel C.

T1 sequence (Q9NZQ7 19-290): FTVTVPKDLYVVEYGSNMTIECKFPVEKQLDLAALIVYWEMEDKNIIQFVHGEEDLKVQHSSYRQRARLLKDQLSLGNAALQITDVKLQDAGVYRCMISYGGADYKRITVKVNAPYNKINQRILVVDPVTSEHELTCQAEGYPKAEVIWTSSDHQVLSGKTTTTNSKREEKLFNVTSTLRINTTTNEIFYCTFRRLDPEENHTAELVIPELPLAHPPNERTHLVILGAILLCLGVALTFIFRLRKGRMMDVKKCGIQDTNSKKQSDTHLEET

B1: PR000265, anti-PD-L1 91G3H5H3(D54E), hIgG1(N297A) (antibody, V domains shown)
VH: EVQLVESGGGLVQPGGSLRLSCAASGFTFSSYWMSWVRQAPGKGLEWVANIKQEGSEKYYVDSVKGRFTISRDNAKNSLYLQMNSLRAEDTAVYYCARDRAVAGAFDIWGQGTMVTVSS
VL: DIQMTQSPSTLSASVGDRVTVTCRASQSIYIWLAWYQQKPGKAPNLLIYKASSLETGVPSRFSGSGSGTEFTLTISSLQPDDFATYYCQQYYGSSRTFGQGTKVEIKR
As for B1, the EC50 in experiment [1] was found to be 1.56 nM; in experiment [2], 1.26 nM; in experiment [3], 0.781 nM; in [4] it was 0.356 nM.

B2: PR001760, anti-4-1BB heavy-chain antibody 1016P0011G10 (antibody, V domains shown)
VH: EVQLVESGGGVVQPGGSLRLSCAASGFTFSNYAMTWVRQAPEKGLEWVSSISGSGVSTYYADSVKGRFTISRDNSKNTLYLQMTRLTAEDTAVYFCAKEGSSETDDHYYNVDVWGQGTTVTVSS
On to B2, for which the EC50 is 0.443 nM in experiment [5], 3.76 nM in [6] and 3.76 nM in [7].

B3: Anti-4-1BB monoclonal antibody urelumab analog (antibody, V domains shown)
VH: QVQLQQWGAGLLKPSETLSLTCAVYGGSFSGYYWSWIRQSPEKGLEWIGEINHGGYVTYNPSLESRVTISVDTSKNQFSLKLSSVTAADTAVYYCARDYGPGNYDWYFDLWGRGTLVTVSS
VL: EIVLTQSPATLSLSPGERATLSCRASQSVSSYLAWYQQKPGQAPRLLIYDASNRATGIPARFSGSGSGTDFTLTISSLEPEDFAVYYCQQRSNWPPALTFGGGTKVEIKR
For B3, the EC50 in experiment [8] was determined as 0.347 nM; in experiment [9], 0.794 nM; in [10], 1.51 nM; in [11] it was 1.01 nM; in experiment [12], 0.459 nM; in experiment [13], 0.424 nM. Further, the EC50 in experiment [14] turned out to be 0.459 nM; in experiment [15] it was 1.51 nM.
